Test results as given in publication PMC7515726 (Nucleic Acids Research, 2020).

Molecular target: FLAG-hH2A.D wild-type nucleosome, 147 bp 601 DNA (ELYS pulldowns) (human, UniProt P20671;P62807;Q71DI3;P62805)
Test: pull-down

binding result: binds
B1: MBP-His6-TEV-ELYS^C, C-terminal fragment of human ELYS (2157-2275) (domain or fragment)
chain: SSQFVISPPALRSRQKNTSNKNKLEDELKDDAQSVETLGKPKAKRIRTSKTKQASKNTEKESAWSPPPIEIRLISPLASPADGVKSKPRKTTEVTGTGLGRNRKKLSSYPKQILRRKML
